Key:
Assay in all cases: purified protein, by the assay type
[1] = substrate: NCc1ccccc1; conditions: pH 7.4, 37.0 °C
Procedure: (§1) The enzymatic activity of recombinant VAP-1 and inhibitor potency was determined using a variation of the fluorometric assay for measuring hydrogen peroxide formation [22]. Briefly, the assay measures the H2O2 generated during the oxidative deamination of an amine substrate (BA for inhibition purposes) by converting Amplex® Red to the fluorescent product, resorufin, via horseradish peroxidase (HRP). […] Stock solutions of Amplex Red (1 mM), HRP (10 U/mL), the substrates (200 μM BA for inhibition), and inhibitor were prepared in reaction buffer and added to the appropriate wells, that the final concentration in each well was 0.05 mM Amplex Red, 0.5 U/mL HRP, and 50 μM BA (saturating condition) in a total reaction volume of 0.1 mL.
(§2) Standard curves were prepared for each plate by serially diluting H2O2 in reaction buffer with equivalent concentrations of Amplex Red and HRP. A 10 μM solution of resorufin was prepared in reaction buffer and was dispensed in duplicate as the positive control for maximum fluorescence. Plates were incubated for 30 minutes at 37°C, protected from light under foil to minimize the resorufin artifactually formed when Amplex Red is exposed to light [28]. The plate was read at 530/35 emission and 590/35 excitation. The mean fluorescence of the background was subtracted from the mean fluorescence of the inhibitor concentration in the presence of BA. The percent control was calculated using equation (1). […] (1) %control=average fluorescence with inhibitor−background/average fluorescence of reaction without inhibitor−background×100, (2) %inhibition=100−%control.
(§3) Both substrates were incubated with recombinant VAP-1 in triplicate on three separate plates.

[2] = substrate: NCCc1ccc(O)cc1; conditions: pH 7.4, 37.0 °C
Procedure: as §1, §2, §3

[3] = substrate: NCCc1ccccc1; conditions: other: recombinant human VAP-1, substrate; pH 7.4; 37.0 °C
Procedure: as §1, §2, §3

[4] = other: recombinant human VAP-1, substrate
[5] = other: recombinant mouse VAP-1, substrate
[6] = other: recombinant rat VAP-1, substrate

B1: recombinant human VAP-1 (Homo sapiens) (protein)
chain: GRGGDGGEPSQLPHCPSVSPSAQPWTHPGQSQLFADLSREELTAVMRFLTQRLGPGLVDAAQARPSDNCVFSVELQLPPKAAALAHLDRGSPPPAREALAIVFFGRQPQPNVSELVVGPLPHPSYMRDVTVERHGGPLPYHRRPVLFQEYLDIDQMIFNRELPQASGLLHHCCFYKHRGRNLVTMTTAPRGLQSGDRATWFGLYYNISGAGFFLHHVGLELLVNHKALDPARWTIQKVFYQGRYYDSLAQLEAQFEAGLVNVVLIPDNGTGGSWSLKSPVPPGPAPPLQFYPQGPRFSVQGSRVASSLWTFSFGLGAFSGPRIFDVRFQGERLVYEISLQEALAIYGGNSPAAMTTRYVDGGFGMGKYTTPLTRGVDCPYLATYVDWHFLLESQAPKTIRDAFCVFEQNQGLPLRRHHSDLYSHYFGGLAETVLVVRSMSTLLNYDYVWDTVFHPSGAIEIRFYATGYISSAFLFGATGKYGNQVSEHTLGTVHTHSAHFKVDLDVAGLENWVWAEDMVFVPMAVPWSPEHQLQRLQVTRKLLEMEEQAAFLVGSATPRYLYLASNHSNKWGHPRGYRIQMLSFAGEPLPQNSSMARGFSWERYQLAVTQRKEEEPSSSSVFNQNDPWAPTVDFSDFINNETIAGKDLVAWVTAGFLHIPHAEDIPNTVTVGNGVGFFLRPYNFFDEDPSFYSADSIYFRGDQDAGACEVNPLACLPQAAACAPDLPAFSHGGFSHN
Km [1, 4]: 45.3 ± 50.7 µM | Vmax [1, 4]: 11.2 µmol/min/mg | Km [2, 4]: 299 µM | Vmax [2, 4]: 0.40 μmoles/min/mg prot | Km [3]: 5510 ± 5510 µM | Vmax [3]: 7.15 µmol/min/mg

B2: recombinant mouse VAP-1 (Mus musculus) (protein)
chain: RSGDGGGLSQPLHCPSVLPSVQPRTHPSQSQPFADLSPEELTAVMSFLTKHLGPGLVDAAQARPSDNCVFSVELQLPAKAAALAHLDRGGPPPVREALAIIFFGGQPKPNVSELVVGPLPHPSYMRDVTVERHGGPLPYYRRPVLDREYQDIEEMIFHRELPQASGLLHHCCFYKHQGQNLLTMTTAPRGLQSGDRATWFGLYYNLSGAGFYPHPIGLELLIDHKALDPALWTIQKVFYQGRYYESLTQLEDQFEAGLVNVVLVPNNGTGGSWSLKSSVPPGPAPPLQFHPQGPRFSVQGSQVSSSLWAFSFGLGAFSGPRIFDIRFQGERVAYEISVQEAIALYGGNSPASMSTCYVDGSFGIGKYSTPLIRGVDCPYLATYVDWHFLLESQAPKTLRDAFCVFEQNQGLPLRRHHSDFYSHYFGGVVGTVLVVRSVSTLLNYDYIWDMVFHPNGAIEVKFHATGYISSAFFFGAGEKFGNRVGAHTLGTVHTHSAHFKVDLDVAGLKNWAWAEDMAFVPTIVPWQPEYQMQRLQVTRKLLETEEEAAFPLGGATPRYLYLASNHSNKWGHRRGYRIQILSFAGKPLPQESPIEKAFTWGRYHLAVTQRKEEEPSSSSIFNQNDPWTPTVNFTDFISNETIAGEDLVAWVTAGFLHIPHAEDIPNTVTAGNSVGFFLRPYNFFDEDPSFHSADSIYFREGQDATACEVNPLACLSQTATCAPEIPAFSHGGFAYRDN
Km [1, 5]: 13.1 ± 11.4 µM | Vmax [1, 5]: 20.1 µmol/min/mg

B3: recombinant rat VAP-1 (Rattus norvegicus) (protein)
chain: RSGDGGRLSQPLHCPSVLPSVQPQTHPGQSQPFADLSPEELTAVMSFLIKHLGPGLVDAAQARPSDNCVFSVELQLPAKAAALAHLDRGGPPPVREALAIIFFGGQPKPNVSELVVGPLPHPSYMRDVTVERHGGPLPYYRRPVLTREYQDIQEMIFHRELPQASGLLHHCCFYKRQGHNLLKMTTAPRGLQSGDRATWFGIYYNLSGAGFYPHPIGLELLVDHKALDPALWTIQKVFYQGRYYESLTQLEDMFEAGLVNVVLVPDNGTGGSWSLKSSVPPGRAPPLQFHPEGPRFSVQGSQVRSSLWAFSFGLGAFSGPRIFDIRFQGERVAYEISVQEAIALYGGNSPASMSTCYMDGSFGIGKYSTPLTRGVDCPYLATYVDWHFLLESQTPKTLRDAFCVFEQNQGLPLRRHHSDFYSHYFGGVVETVLVVRSVATLLNYDYVWDMVFHSNGAIEVKFHATGYITSAFFFGAGEKFGNRVAEHTLGTVHTHNAHFKVDLDVAGLKNWAWAEDLAFVPMNVPWQPEFQMQRLQVTRKLLETEEEAAFPLGNATPRYLYLASNHSNKWGHRRGYRIQILSFAGKPLPQESPIEKAFTWGRYHLAVTQRKEEEPSSSSIYNQNDPWTPTVDFTDFISNETIAGEDLVAWVTAGFLHIPHAEDIPNTVTVGNGVGFFLRPYNFFDEDPSFYSPDSIYFRKDQDVTDCEVNSLACLSQTANCVPDLPAFSHGGFTYK
Km [1, 6]: 4.38 ± 0.361 µM | Vmax [1, 6]: 20.2 µmol/min/mg | Km [2, 6]: 8.31 µM | Vmax [2, 6]: 1.19 μmoles/min/mg prot

Source: publication PMC7201828, “Comparison of Inhibitor and Substrate Selectivity between Rodent and Human Vascular Adhesion Protein-1” (Mediators of Inflammation, 2020)
